The results in this text go back to paper PMC10995091, “Novel glycosidase from Paenibacillus lactis 154 hydrolyzing the 28-O-β-D-glucopyranosyl ester bond of oleanane-type saponins” (Applied Microbiology and Biotechnology, 2024).

Substrate in the data set “purified protein”: O=[N+]([O-])c1ccc(O[C@@H]2O[C@H](CO)[C@@H](O)[C@H](O)[C@H]2O)cc1
In words: purified protein. Particulars: recombinant free enzyme; pH and temperature of the kinetic run not given.

Substrate in data set [1]: CC1(C)CC[C@]2(C(=O)O[C@@H]3O[C@H](CO)[C@@H](O)[C@H](O)[C@H]3O)CC[C@]3(C)C(=CC[C@@H]4[C@@]5(C)CC[C@H](O[C@@H]6O[C@H](C(=O)O)[C@@H](O)[C@H](O)[C@H]6O[C@@H]6O[C@H](CO)[C@@H](O)[C@H](O)[C@H]6O)C(C)(C)[C@@H]5CC[C@]43C)[C@@H]2C1
The experiment in a line: initial rate of ZR1 formation from Ro. Format: biochemical, Paenibacillus lactis. To be noted: recombinant free enzyme; pH and temperature of the kinetic run not given; hydrolysis of the C-28 glucosyl ester.

B1: PlGH3 (Paenibacillus lactis; K755R/M754K) (protein)
chain: MRNHTLDTINKTEETVRYVQNPGGPTLGYSEESGVGIIEQDGLFFKDLSRDGKLDNYEDWRLTPEERAKDLASKMTVEQIAGLMLYSRHQSIPALSSGWFAGTYGGKTYEESGAKPWELTDEQIAFLTKDHVRHVLVTTVESPEVAARWNNKIQAFAEGTGLGIPANNSSDPRHASDSSSEFNAGAGGHISMWPETLGLAATFDPEITKKFGMIASREYRALGLATALSPQIDIATEPRWFRFNGTFGEDSKLAADMARAYVDGFQTSEGEREIADGWGYDSVNAMVKHWPGGGSGEAGRDAHYSCGKYAVYPGNNFDEHLVPFTEGAFKLDGKTGKASAVMPYYTISLGQDTVNGENVGNSYNSYLIRDLLRGKYGYDGVVCTDWMITADVSGPKDSFLSGKPWGVEDLTVGERHYKLQMAGVDQFGGNNEIEPVLEAYKIGVREHGEAYMRERFEQSAVRLLKNMFRLGLFENPYLDPQESATLVGNPEFMREGYEAQLKSIVMLKNKNGVLPLRAKSKVYIPKRFLPPGKDWFGNPTPESYDYPVNLEVVSKYFEVTDQPDEAEFGLVFITSPKSGTGYSQEDEERGGNGYVPISLQYKPYTAEHAREISLAGDEHGNEPRNRSYKGKTVIPHNTTDLNMVLETKEKMKGKPVIVSMLLCNPTVVSEFEAEVDAILANFGVQDQAMMEVLTGAAEPSGLLPMQMPAHMRTVEEQLEDVAHDMECHVDSEKHVYDFAFGMNWGGVIEDERTKRYRRS
notes: N-terminal His tag (pET-28a, BamHI/HindIII), E. coli BL21(DE3), Ni-NTA purified
With B1, in “purified protein”, the Km is on record as 22.76 ± 1.33 µM and the kcat turned out to be 46.18 s⁻¹. Further, in data set [1], the Km was determined as 79.59 ± 3.42 µM and the turnover number (kcat) came to 18.52 ± 0.28 s⁻¹.
